Target: REGN10987-based FabH3 heavy chain (VH - GS-G4 linker - IgG1 CH3 K392D, K409D)
Experiment: pull-down; co-purification from the soluble E. coli lysate by cobalt IMAC on the His6 tag of the heavy chain, native conditions; SDS-PAGE

REGN10987-based FabH3 heavy chain (VH - GS-G4 linker - IgG1 CH3 K392D, K409D), sequence (heavy, as listed by the source): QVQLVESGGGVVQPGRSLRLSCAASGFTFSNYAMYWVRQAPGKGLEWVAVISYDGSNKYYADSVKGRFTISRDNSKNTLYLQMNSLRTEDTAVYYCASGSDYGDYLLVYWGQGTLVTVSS

- stoichiometry N: 1
Substance: REGN10987-based FabH3 light chain (VL - GS-G4 linker - IgG1 CH3 E356K, D399K)

— publication PMC10469194
